# Where no end group is shown, it is not given here. [ ]: non-standard residue; d: D form. 5‑Cl‑benzothiazol‑2‑yl side chain = not defined here; 6‑Cl‑benzothiazol‑2‑yl side chain = not defined here; Phe(3-CF3) = N[C@@H](Cc1cccc(C(F)(F)F)c1)C(=O)O; Phe(3,5-F2) = N[C@@H](Cc1cc(F)cc(F)c1)C(=O)O; Phe(3-CN) = N#Cc1cccc(C[C@H](N)C(=O)O)c1; Phe(3-Cl) = N[C@@H](Cc1cccc(Cl)c1)C(=O)O; Phe(4-Cl) = N[C@@H](Cc1ccc(Cl)cc1)C(=O)O; Phe(2-Cl) = N[C@@H](Cc1ccccc1Cl)C(=O)O; 2Nal = N[C@@H](Cc1ccc2ccccc2c1)C(=O)O; Phe(2-F) = N[C@@H](Cc1ccccc1F)C(=O)O; hPhe = N[C@@H](CCc1ccccc1)C(=O)O
# B1: analog of 11 with 3,5-di-F substitution of the phenyl (peptide)
# chain: [Phe(3,5-F2)]IKL
# B2: UBC12 peptide 2 (peptide 1 without Lys12) (peptide)
# peptide: MIKLFSLKQQK
# B3: analog of 11 containing an m-CF3 substituted phenyl (peptide)
# chain: [Phe(3-CF3)]IKL
# B4: UBC12 tripeptide (10) (peptide)
# peptide: MIK
# B5: compound 25 (24 with 5-Cl on the benzothiazol-2-yl) (peptide)
# chain: [5‑Cl‑benzothiazol‑2‑yl side chain]IKL
# modifications: not fully specified; reading uncertain
# B6: compound 14 (11 with Cl at the meta position of the phenyl ring) (peptide)
# chain: [Phe(3-Cl)]IKL
# B7: UBC12 peptide 5 (peptide)
# peptide: MIKLFSLK
# B8: UBC12 peptide 8 (peptide)
# peptide: MIKLF
# B9: UBC12 peptide 7 (peptide)
# peptide: MIKLFS
# B10: compound 13 (11 with Cl at the ortho position of the phenyl ring) (peptide)
# chain: [Phe(2-Cl)]IKL
# B11: compound 12 (tetrapeptide 9 with Met1 replaced by homophenylalanine) (peptide)
# chain: [hPhe]IKL
# B12: compound 26 (24 with 6-Cl on the benzothiazol-2-yl) (peptide)
# chain: [6‑Cl‑benzothiazol‑2‑yl side chain]IKL
# modifications: not fully specified; reading uncertain
# B13: analog of 11 containing an m-CN substituted phenyl (peptide)
# chain: [Phe(3-CN)]IKL
# B14: UBC12 seven-residue peptide (6) (peptide)
# peptide: MIKLFSL
# B15: compound 23 (11 with the phenyl replaced by naphthalen-2-yl) (peptide)
# chain: [2Nal]IKL
# B16: analog of 11 with o-F substitution of the phenyl (peptide)
# chain: [Phe(2-F)]IKL
# B17: UBC12 peptide 3 (peptide)
# peptide: MIKLFSLKQQ
# B18: UBC12 peptide 4 (peptide)
# peptide: MIKLFSLKQ
# B19: analog of 11 with p-OH substitution of the phenyl (peptide)
# peptide: YIKL
# B20: compound 15 (11 with Cl at the para position of the phenyl ring) (peptide)
# chain: [Phe(4-Cl)]IKL
# B21: compound 11 (tetrapeptide 9 with Met1 replaced by phenylalanine) (peptide)
# peptide: FIKL
# Target: human DCN1 (residues 58–259), N-terminal His6 tag (human, UniProt Q96GG9 58-259)
# Assay: FP
# Sequence of human DCN1 (residues 58–259), N-terminal His6 tag (Q96GG9 58-259): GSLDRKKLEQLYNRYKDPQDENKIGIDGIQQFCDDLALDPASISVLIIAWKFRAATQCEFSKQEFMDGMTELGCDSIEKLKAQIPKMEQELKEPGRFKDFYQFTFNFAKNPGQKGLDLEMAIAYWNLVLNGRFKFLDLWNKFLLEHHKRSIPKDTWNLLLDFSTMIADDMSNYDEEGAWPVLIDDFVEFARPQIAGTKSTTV
row,Binder,Ki [µM]
1,B1,82
2,B2,2.4
3,B3,> 1000
4,B4,> 1000
5,B5,2.5
6,B6,45
7,B7,9.2
8,B8,111
9,B9,83
10,B10,143
11,B11,313
12,B12,0.034
13,B13,> 1000
14,B14,28
15,B15,3.8
16,B16,125
17,B17,6
18,B18,6.5
19,B19,386
20,B20,71
21,B21,41
